This note sets out measurements from the supplement of paper PMC9170038.

The subject of the data set is MS2 coat protein. Kind of data set: apparent KD of MS2 coat protein; designed switch direction (-1 OFF switch, 1 ON switch): -1; higher = weaker reporter binding. The method, boiled down:
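An oligonucleotide input, 200 uM small-molecule ligand, or no input was present during titration of SNAP-549-labelled MS2 coat protein, which was doubled from 0.7 or 1.5 nM to 3 µM. Designed RNA switches had been transcribed on Illumina chips by stalled E. coli RNA polymerase. Apparent KD per design is the median over clusters of curves fitted to normalised cluster fluorescence.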

[1] abbreviates: input ligand: microRNA oligo, concentration not stated.
Where [2] appears, read: Eterna round: R95, input ligand: microRNA oligo, concentration not stated.
[3] abbreviates: Eterna round: R95, input ligand: FMN 200 uM.
[4] abbreviates: Eterna round: R95, input ligand: none.

With “GCAUAUGAUGUAGGAUAUGCGAGACAUGAGGAUCACCCAUGUGAGGGAAGGAGAAGGAGAAGAGAGUAGAAGGAUAGAGUGUGA [Default title] (Eterna round: R96, puzzle: Exclusion NG 2)”, the “apparent KD of MS2 coat protein” value by setting is: (input ligand: FMN 200 uM) 83.8 nM; under setting [1], 85.3 nM; (input ligand: none) 85.1 nM.
In the case of “GCAUGAUACUAGGAUAUCAGCAUACUUCAAUGUUGAGAAGGAGUAACAUGAGGAUCACCCAUGUAUCCAACAUG [Exclusion 6 - 4:a] (puzzle: Exclusion 6)”, the “apparent KD of MS2 coat protein” value under setting [2] turned out to be 38.5 nM.
As to “GCAUGUCUUAAGGAUAUGCCUAGGCGUGAGCCGGCAGAAGGUAAGACAUGAGGAUCACCCAUGUUUUCCUAAAA [jl-ex6-4.30 ViennaUCT mod] (Eterna round: R97, puzzle: Exclusion 6)”, the “apparent KD of MS2 coat protein” value (input ligand: FMN 200 uM) is 280 nM and the “apparent KD of MS2 coat protein” value (input ligand: none) turned out to be 51.2 nM.
Take “GCCAGAGCAGGAUAUUCAAUAUCUCACAUGAGGAUCACCCAUGUCCAUCGAAAGAUGGAGGGAGAAGGGCUCUGGC [Mat - Exclusion 5 - Eli mod - D92] (puzzle: Exclusion 5)”: the “apparent KD of MS2 coat protein” value reads like this: under setting [3], 37.3 nM; under setting [2], 45.5 nM; under setting [4], 64.7 nM.
For “GCCAGAGCAGGAUAUUCAAUAUUCCACAUGAGGAUCACCCAUGUCCUGCGAAAGCAGGAGGGAGAAGGGCUCUGGC [Mat - Exclusion 5 - Eli mod - D91] (puzzle: Exclusion 5)”, under setting [2], the “apparent KD of MS2 coat protein” value was determined as 56.2 nM.
As for “GCCAGAGCAGGAUAUUCAGUAUCACACAUGAGGAUCACCCAUGUCUAUCGAAAGAUAGAGGGAGAAGGGCUCUGGC [Mat - Exclusion 5 - Eli mod - D95] (puzzle: Exclusion 5)”, the “apparent KD of MS2 coat protein” value came to 28.4 nM under setting [3], 105 nM under setting [2] and 118 nM under setting [4].
As to “GCCAGUGCAGGAUAUCUAUAACCCUACAUGAGGAUCACCCAUGUCCAGCGAAAGCUGGAGGGAGAAGGGCACUGGC [Fiskers Ex 5 - 27] (puzzle: Exclusion 5)”, the “apparent KD of MS2 coat protein” value is, setting by setting: under setting [3], 15.5 nM; under setting [2], 17.6 nM; under setting [4], 21.5 nM.
For “GCCAUGUAAGGAUAUAACCGUCUUCAUGAACAAUGAGGAUGUUAGAAGGUACAUGAGGAUCACCCAUGUCCUUC [Eternabot (Original) Solution 6] (Eterna round: R97, puzzle: Exclusion 4)”, the “apparent KD of MS2 coat protein” value is, setting by setting: (input ligand: FMN 200 uM) 15.7 nM; (input ligand: none) 12.5 nM.
For “GCCGAAAGUGUGAGGAUAUACCUAUGGAUACAUAGGUAGAAGGCACAUGAGGAUCACCCAUGUUCCUCAUCGGC [Eli bmx4 4.17] (Eterna round: R97, puzzle: Brourd's mod of Exclusion 4)”, the “apparent KD of MS2 coat protein” value runs as follows: (input ligand: FMN 200 uM) 551 nM; (input ligand: none) 92.8 nM.
As for “GCCGUCAGUGUGAGGAUAUGCCUAUGGAUACGUAGGCAGAAGGCACAUGAGGAUCACCCAUGUCCUAAGACGGC [JL-BMX4-4.33 Eli mod] (Eterna round: R97, puzzle: Brourd's mod of Exclusion 4)”, the “apparent KD of MS2 coat protein” value (input ligand: FMN 200 uM) was 146 nM and the “apparent KD of MS2 coat protein” value (input ligand: none) worked out at 190 nM.
For “GCCUCACAUGAGGAUCACCCAUGUCAGGAUAUCUAAGGCGAAGUGCAAGCACCUCGUGAGAGAAGGGACGUCAA [Dienononen] (puzzle: Exclusion 1)”, the “apparent KD of MS2 coat protein” value under setting [2] is 20.9 nM.
As to “GCCUCACUUGAGGAUCACCCAAGUCAGGAUAUUCACUGAACUGCGUAACAGCUCGGCCGAAGAAGGGAUUCGGG [Leisatat] (Eterna round: R97, puzzle: Exclusion 1)”, the “apparent KD of MS2 coat protein” value stood at 80.8 nM (input ligand: FMN 200 uM) and 78.5 nM (input ligand: none).
In the case of “GCCUUAUCUGUCAGGAUAUACAAUAAAAUAACUUUGUAGAAGGGACAUGAGGAUCACCCAUGUACAUUACAUUG [alecazam24b] (Eterna round: R97, puzzle: Brourd's mod of Exclusion 4)”, the “apparent KD of MS2 coat protein” value came to 63.1 nM (input ligand: FMN 200 uM) and 24.6 nM (input ligand: none).
As to “GCGCACCUACCAAAAGGUAGGUCAACAUGAGGAUCACCCAUGUAGGAUAUCGAUUGCUUUGCAGUCGAGAAGGACGUGAUGCGC [JL ENG3 3.80 Mod 15] (Eterna round: R96, puzzle: Exclusion NG 3)”, the “apparent KD of MS2 coat protein” value reads like this: (input ligand: FMN 200 uM) 38 nM; under setting [1], 24.5 nM; (input ligand: none) 34.3 nM.
Turning to “GCGGACAAGAUGGUGACAUCAGAGACAUGAGGAUCACCCAUGUAGGAUAUCGAUUCGAAACGAAUCGAGAAGGGCAUAGUCCGC [JL denovo 3] (Eterna round: R96, puzzle: Exclusion NG 3)”, the “apparent KD of MS2 coat protein” value by setting is: (input ligand: FMN 200 uM) 460 nM; under setting [1], 190 nM; (input ligand: none) 224 nM.
Take “GCGGAGUAUGUAGGAUAUCGGUCAGUUUCUGAUCGAGAAGGACAUGAGGAUCACCCAUGUAAAUUGCCCGCUUUGUGGGUCCGC [JL ENG1 3.61] (Eterna round: R96, puzzle: Exclusion NG 1)”: the “apparent KD of MS2 coat protein” value came out at 36.5 nM (input ligand: FMN 200 uM), 13.2 nM under setting [1] and 17.8 nM (input ligand: none).
Take “GCGUAUGAGCAGGAUAUCCCGCGGGAAUCCAUAGGAGAAGGGCUCACAUGAGGAUCACCCAUGUGGUCCAGAAA [Isisan] (puzzle: Exclusion 6)”: the “apparent KD of MS2 coat protein” value is, setting by setting: under setting [3], 20.2 nM; under setting [2], 16.1 nM; under setting [4], 18 nM.
In the case of “GCUACUCCAGUCAGGAUAUGGAUCGGCUAAAAGACCCAGAAGGGACUUGAGGAUCACCCAAGUAACGGCUCGGG [Soveare] (Eterna round: R97, puzzle: Brourd's mod of Exclusion 4)”, the “apparent KD of MS2 coat protein” value (input ligand: FMN 200 uM) worked out at 378 nM and the “apparent KD of MS2 coat protein” value (input ligand: none) stood at 54.2 nM.
Turning to “GCUAGAGCAGGAUAUCUAGAUCCACACAUGAGGAUCACCCAUGUAGUCGAAAGACUAAGAAGAGAAGGGCUCUAGC [Omei Ex5 E16] (Eterna round: R97, puzzle: Exclusion 5)”, the “apparent KD of MS2 coat protein” value is 322 nM (input ligand: FMN 200 uM) and 324 nM (input ligand: none).
With “GCUCAACAUGAGGAUCACCCAUGUCAGGAUAUGCGAAUUUCAUCAAAAGAUGAAAUUUGCAGAAGGGACUAAGC [Omei Ex1 A32] (Eterna round: R97, puzzle: Exclusion 1)”, the “apparent KD of MS2 coat protein” value is, setting by setting: (input ligand: FMN 200 uM) 114 nM; (input ligand: none) 52.6 nM.
Turning to “GCUCAACAUGAGGAUCACCCAUGUGAGGAUAUGCGAAUUUCAUCAAAAGAUGAAAUUUGCAGAAGGCACUGAGC [Omei Ex1 A35] (Eterna round: R97, puzzle: Exclusion 1)”, the “apparent KD of MS2 coat protein” value amounted to 17.4 nM (input ligand: FMN 200 uM) and 16.5 nM (input ligand: none).
For “GCUCACGCAGGAUAUACAUGAGGAUCACCCAUGUUCGAAGGGCGCGGGUACAAAGUCUGUAGAAGGGCGAAAAU [Getiin] (Eterna round: R97, puzzle: Exclusion 3)”, in that order: 26.1 nM and 19.8 nM.
On to “GCUGCAAAUGUAGGAUAUCUGCACGUUUAGUGCAGAGAAGGACAUGAGGAUCACCCAUGUAGAUCAGCAGCAAUUAAUUUAAUU [ENG1/5-A2] (Eterna round: R96, puzzle: Exclusion NG 1)”, for which the “apparent KD of MS2 coat protein” value (input ligand: FMN 200 uM) came out at 480 nM, the “apparent KD of MS2 coat protein” value under setting [1] came out at 40.8 nM and the “apparent KD of MS2 coat protein” value (input ligand: none) was found to be 45.2 nM.
As for “GCUGGUCAAGGAUAUACAUGAGGAUCACCCAUGUGAUCAGCAGUCCUCGGACUGCAAUGUAGAAGGUGACCAGC [E3/1-C1] (Eterna round: R97, puzzle: Exclusion 3)”, the “apparent KD of MS2 coat protein” value reads like this: (input ligand: FMN 200 uM) 29.3 nM; (input ligand: none) 458 nM.
As to “GCUGGUCGAGGAUAUACAUUCGUGCUUCGGCACGUAAGAUCACAUGAGGAUCACCCAUGUAGAAGGCGACCAGC [E2/5-A1] (Eterna round: R97, puzzle: Exclusion 2)”, the “apparent KD of MS2 coat protein” value was found to be 930 nM (input ligand: FMN 200 uM) and 112 nM (input ligand: none).
Take “GCUUAACAUGAGGAUCACCCAUGUUAGGAUAUGCGAACUCGUAAGAUGCAGGGAGAUUGCAGAAGGAACGUGGC [EX1 C.15] (Eterna round: R97, puzzle: Exclusion 1)”: the “apparent KD of MS2 coat protein” value (input ligand: FMN 200 uM) amounted to 22 nM and the “apparent KD of MS2 coat protein” value (input ligand: none) came to 18.2 nM.
Take “GCUUGCUUUUUGGUUUUCAACAUGAGGAUCACCCAUGUUCGUCUUGUGCCCGGGCCCGGGCGGUGCCCGGGCCCGGG [A 9%] (Eterna round: R97, puzzle: Sensor, turn-off variant 1)”: the “apparent KD of MS2 coat protein” value was found to be 17.9 nM (input ligand: FMN 200 uM) and 17.8 nM (input ligand: none).
As to “GCUUGUGGGCAAGGAUAUCCUACGCUGUUCUGGUUCGUGUCUGUCACAUGAGGAUCACCCAUGUGGGAGAAGGUGCAUUUGGGU [Design 58] (Eterna round: R96, puzzle: Exclusion NG 2)”, the “apparent KD of MS2 coat protein” value runs as follows: (input ligand: FMN 200 uM) 17.7 nM; under setting [1], 21.2 nM; (input ligand: none) 20.9 nM.
On to “GCUUGUGGGCAAGGAUAUCCUACGUUGUUCUGGUUCGUGUCUGUCACAUGAGGAUCACCCAUGUGGGAGAAGGUGCAUUUGGUG [Design 61] (Eterna round: R96, puzzle: Exclusion NG 2)”, for which the “apparent KD of MS2 coat protein” value under setting [1] turned out to be 12.9 nM.
As for “GCUUUUGGGCAAGGAUAUCCUGCGCGGUUCCGGUUCGUGUCUGUCACAUGAGGAUCACCCAUGUGGGAGAAGGUGCCUGUGGUG [Design 72] (Eterna round: R96, puzzle: Exclusion NG 2)”, the “apparent KD of MS2 coat protein” value runs as follows: (input ligand: FMN 200 uM) 28.3 nM; under setting [1], 13.6 nM; (input ligand: none) 18.4 nM.
On to “GGAAAAGCAGGAUAUACAUGAGGAUCACCCAUGUAGGCUCGCCGAGACGUGGAUGGACGUAGAAGGGCUAUUCC [Eternabot (L1) Solution 65] (Eterna round: R97, puzzle: Exclusion 3)”, for which the “apparent KD of MS2 coat protein” value (input ligand: FMN 200 uM) was 121 nM and the “apparent KD of MS2 coat protein” value (input ligand: none) turned out to be 28.9 nM.
